From patent publication US20060282909A1 (published 2006) come the findings set out here.

The target in series [1] is T1, NF-AT3 full length (NFATC4) (UniProt Q14934).
T1 sequence: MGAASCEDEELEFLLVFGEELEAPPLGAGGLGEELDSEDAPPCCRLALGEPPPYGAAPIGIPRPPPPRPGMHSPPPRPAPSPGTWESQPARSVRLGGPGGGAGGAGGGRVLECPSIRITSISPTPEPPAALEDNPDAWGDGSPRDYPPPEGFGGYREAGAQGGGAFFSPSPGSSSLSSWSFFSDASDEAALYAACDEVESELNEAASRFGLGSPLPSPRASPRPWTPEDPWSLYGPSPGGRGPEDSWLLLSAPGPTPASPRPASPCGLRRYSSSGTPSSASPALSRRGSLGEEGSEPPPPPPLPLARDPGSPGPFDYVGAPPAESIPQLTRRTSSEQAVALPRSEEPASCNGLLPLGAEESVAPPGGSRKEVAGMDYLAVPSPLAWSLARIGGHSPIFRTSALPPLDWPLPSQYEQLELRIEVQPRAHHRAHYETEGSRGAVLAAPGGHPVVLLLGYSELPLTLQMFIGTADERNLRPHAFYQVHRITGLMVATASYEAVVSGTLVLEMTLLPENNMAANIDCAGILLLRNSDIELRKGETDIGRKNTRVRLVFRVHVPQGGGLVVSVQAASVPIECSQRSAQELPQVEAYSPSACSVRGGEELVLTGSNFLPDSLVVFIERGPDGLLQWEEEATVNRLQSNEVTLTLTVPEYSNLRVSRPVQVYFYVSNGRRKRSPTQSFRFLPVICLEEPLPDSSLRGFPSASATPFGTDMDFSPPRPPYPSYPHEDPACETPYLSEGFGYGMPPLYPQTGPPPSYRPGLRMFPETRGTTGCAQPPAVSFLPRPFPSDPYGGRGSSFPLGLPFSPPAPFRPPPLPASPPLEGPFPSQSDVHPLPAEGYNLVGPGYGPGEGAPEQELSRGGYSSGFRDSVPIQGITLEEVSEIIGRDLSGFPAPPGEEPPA
Briefly: cell_activity. The conditions noted are these: CAT reporter activation with GATA4, NF-AT3 and activated calcineurin together in rat cardiomyocytes.

A further series concerns the target full-length GATA4 (UniProt Q08369 1-441, limits assumed). As to the kind of experiment: cell-based or functional assay.

Sequence of full-length GATA4 (Q08369 whole entry): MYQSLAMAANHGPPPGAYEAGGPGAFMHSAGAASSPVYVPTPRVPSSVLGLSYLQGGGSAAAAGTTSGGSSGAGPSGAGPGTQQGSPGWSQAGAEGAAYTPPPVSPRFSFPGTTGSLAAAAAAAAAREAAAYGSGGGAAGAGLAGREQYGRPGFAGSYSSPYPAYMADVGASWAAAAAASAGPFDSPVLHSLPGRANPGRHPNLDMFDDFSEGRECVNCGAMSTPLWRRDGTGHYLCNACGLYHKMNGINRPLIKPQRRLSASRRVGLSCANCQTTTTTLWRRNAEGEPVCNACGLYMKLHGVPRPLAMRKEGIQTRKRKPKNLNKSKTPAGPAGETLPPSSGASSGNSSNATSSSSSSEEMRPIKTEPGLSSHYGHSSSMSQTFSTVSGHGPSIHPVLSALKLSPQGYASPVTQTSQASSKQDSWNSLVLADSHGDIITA

Turning to BNP promoter 1800 bp, the activity in series [1] is over 100 fold.

B1: full length NF-AT3 (other)
chain: T1 sequence
Regarding B1, in the series with full-length GATA4, the “activation of the BNP promoter (CAT reporter) in transfected neonatal rat cardiomyocytes” value is over 100 fold.
